Target: T1, His6-tagged hIL-21Rα extracellular domain (human, UniProt Q9HBE5 20-232)
T1 construct: extracellular domain; also called His6-tagged receptor EC domain; hIL-21Rα chain; not shown: His6 tag
Assay: ALPHAScreen competition against biotinylated hIL-21 HA

T1 sequence (Q9HBE5 20-232): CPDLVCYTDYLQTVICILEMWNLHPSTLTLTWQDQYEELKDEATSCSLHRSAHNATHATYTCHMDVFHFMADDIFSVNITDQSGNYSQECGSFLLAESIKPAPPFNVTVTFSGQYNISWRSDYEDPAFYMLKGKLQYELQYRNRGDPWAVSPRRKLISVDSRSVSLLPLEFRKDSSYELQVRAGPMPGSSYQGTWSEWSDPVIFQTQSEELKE

B1: hIL-21 HA triple mutant [Q116D, H120D, L123D] (ligand)
chain: QGQDRHMIRMRQLIDIVDQLKNYVNDLVPEFLPAPEDVETNCEWSAFSCFQKAQLKSANTGNNERIINVSIKKLKRKPPSTNAGRRQKHRLTCPSCDSYEKKPPKEFLERFKSLLDKMIDQHDSSRTHGSEDSYPYDVPDYA
notes: Made by site-directed mutagenesis of the pcDNA3.1(+)/hIL-21HA plasmid and expressed in HEK293 cells
B1: binds.

From US20120107267A1 (Novo Nordisk, published 2012)
